In the supplement of paper PMC10567573:

B1: TOR1AIP2 (parent)
chain: AGQEGEDTLRRRLLAPEAGSHPQQ

Variants of: B1
Experiment: protein stability index of a GFP-peptide fusion (GPS, HEK-293T) (PSI 1-6); higher = more stable
Details: c terminus: a fixed tail appended
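Also: lentivirally expressed fusions sorted by FACS into six bins by GFP to DsRed ratio, PSI derived from sequencing read proportions per bin multiplied by bin number.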

Row | Variant | protein stability index
1 | AGQEGEDTLQRRLLAPEAGSHPQQ [R10Q] | 5.08
2 | AGQEGEDTLTRRLLAPEAGSHPQQ [R10T] | 5.17
3 | AGQEGEDTLARRLLAPEAGSHPQQ [R10A] | 4.84
4 | AGQEGEDTLVRRLLAPEAGSHPQQ [R10V] | 4.26
5 | AGQEGEDTLGRRLLAPEAGSHPQQ [R10G] | 5.17
6 | AGQEGEDTLERRLLAPEAGSHPQQ [R10E] | 5.4
7 | AGQEGEDTLDRRLLAPEAGSHPQQ [R10D] | 5.38
8 | AGQEGEDTLCRRLLAPEAGSHPQQ [R10C] | 5.64
9 | AGQEGEDTLMRRLLAPEAGSHPQQ [R10M] | 4.88
10 | AGQEGEDTLNRRLLAPEAGSHPQQ [R10N] | 5.29
11 | AGQEGEDTLKRRLLAPEAGSHPQQ [R10K] | 5.06
12 | AGQEGEDTLIRRLLAPEAGSHPQQ [R10I] | 4.62
13 | AGQEGEDTLWRRLLAPEAGSHPQQ [R10W] | 4.37
14 | AGQEGEDTLHRRLLAPEAGSHPQQ [R10H] | 5.31
15 | AGQEGEDTLSRRLLAPEAGSHPQQ [R10S] | 5.29
16 | AGQEGEDTLFRRLLAPEAGSHPQQ [R10F] | 4.51
17 | AGQEGEDTLPRRLLAPEAGSHPQQ [R10P] | 5.19
18 | AGQEGEDTLLRRLLAPEAGSHPQQ [R10L] | 4.82
19 | AGQEGEDTLYRRLLAPEAGSHPQQ [R10Y] | 4.53
20 | AGQEGEDTQRRRLLAPEAGSHPQQ [L9Q] | 4.56
21 | AGQEGEDTWRRRLLAPEAGSHPQQ [L9W] | 2.41
22 | AGQEGEDTARRRLLAPEAGSHPQQ [L9A] | 4.4
23 | AGQEGEDTYRRRLLAPEAGSHPQQ [L9Y] | 3.67
24 | AGQEGEDTIRRRLLAPEAGSHPQQ [L9I] | 2.33

Row | Variant | protein stability index
25 | AGQEGEDTSRRRLLAPEAGSHPQQ [L9S] | 5.06
26 | AGQEGEDTTRRRLLAPEAGSHPQQ [L9T] | 4.59
27 | AGQEGEDTGRRRLLAPEAGSHPQQ [L9G] | 4.89
28 | AGQEGEDTKRRRLLAPEAGSHPQQ [L9K] | 3.87
29 | AGQEGEDTRRRRLLAPEAGSHPQQ [L9R] | 4.45
30 | AGQEGEDTNRRRLLAPEAGSHPQQ [L9N] | 4.61
31 | AGQEGEDTFRRRLLAPEAGSHPQQ [L9F] | 3.61
32 | AGQEGEDTERRRLLAPEAGSHPQQ [L9E] | 4.58
33 | AGQEGEDTHRRRLLAPEAGSHPQQ [L9H] | 4.71
34 | AGQEGEDTVRRRLLAPEAGSHPQQ [L9V] | 3.8
35 | AGQEGEDTMRRRLLAPEAGSHPQQ [L9M] | 3.69
36 | AGQEGEDTDRRRLLAPEAGSHPQQ [L9D] | 4.17
37 | AGQEGEDTCRRRLLAPEAGSHPQQ [L9C] | 4.29
38 | AGQEGEDTPRRRLLAPEAGSHPQQ [L9P] | 4.27
39 | AGQEGEFTLRRRLLAPEAGSHPQQ [D7F] | 2.47
40 | AGQEGESTLRRRLLAPEAGSHPQQ [D7S] | 2.04
41 | AGQEGENTLRRRLLAPEAGSHPQQ [D7N] | 1.97
42 | AGQEGERTLRRRLLAPEAGSHPQQ [D7R] | 1.73
43 | AGQEGECTLRRRLLAPEAGSHPQQ [D7C] | 1.54
44 | AGQEGEKTLRRRLLAPEAGSHPQQ [D7K] | 2.57
45 | AGQEGEPTLRRRLLAPEAGSHPQQ [D7P] | 4.24
46 | AGQEGEETLRRRLLAPEAGSHPQQ [D7E] | 2.56
47 | AGQEGEHTLRRRLLAPEAGSHPQQ [D7H] | 2.73
48 | AGQEGETTLRRRLLAPEAGSHPQQ [D7T] | 3.15

Row | Variant | protein stability index
49 | AGQEGEITLRRRLLAPEAGSHPQQ [D7I] | 1.76
50 | AGQEGEGTLRRRLLAPEAGSHPQQ [D7G] | 2.12
51 | AGQEGEMTLRRRLLAPEAGSHPQQ [D7M] | 1.88
52 | AGQEGEQTLRRRLLAPEAGSHPQQ [D7Q] | 2.39
53 | AGQEGEYTLRRRLLAPEAGSHPQQ [D7Y] | 2.41
54 | AGQEGELTLRRRLLAPEAGSHPQQ [D7L] | 2.73
55 | AGQEGEVTLRRRLLAPEAGSHPQQ [D7V] | 1.76
56 | AGQEGLDTLRRRLLAPEAGSHPQQ [E6L] | 1.94
57 | AGQEGADTLRRRLLAPEAGSHPQQ [E6A] | 2.25
58 | AGQEGDDTLRRRLLAPEAGSHPQQ [E6D] | 2.79
59 | AGQEGPDTLRRRLLAPEAGSHPQQ [E6P] | 2.88
60 | AGQEGQDTLRRRLLAPEAGSHPQQ [E6Q] | 2.37
61 | AGQEGHDTLRRRLLAPEAGSHPQQ [E6H] | 2.32
62 | AGQEGYDTLRRRLLAPEAGSHPQQ [E6Y] | 2.5
63 | AGQEGSDTLRRRLLAPEAGSHPQQ [E6S] | 2.59
64 | AGQEGMDTLRRRLLAPEAGSHPQQ [E6M] | 2.33
65 | AGQEGRDTLRRRLLAPEAGSHPQQ [E6R] | 3.06
66 | AGQEGIDTLRRRLLAPEAGSHPQQ [E6I] | 2.13
67 | AGQEGVDTLRRRLLAPEAGSHPQQ [E6V] | 2.53
68 | AGQEGNDTLRRRLLAPEAGSHPQQ [E6N] | 3.08
69 | AGQEGGDTLRRRLLAPEAGSHPQQ [E6G] | 1.73
70 | AGQEGWDTLRRRLLAPEAGSHPQQ [E6W] | 2.63
71 | AGQEGKDTLRRRLLAPEAGSHPQQ [E6K] | 1.95
72 | AGQEGTDTLRRRLLAPEAGSHPQQ [E6T] | 2.08

Row | Variant | protein stability index
73 | AGQEGFDTLRRRLLAPEAGSHPQQ [E6F] | 3.25
74 | AGQEGEDTLRDRLLAPEAGSHPQQ [R11D] | 5.21
75 | AGQEGEDTLRCRLLAPEAGSHPQQ [R11C] | 3.77
76 | AGQEGEDCLRRRLLAPEAGSHPQQ [T8C] | 2.42
77 | AGQEGEDVLRRRLLAPEAGSHPQQ [T8V] | 3.16
78 | AGQEGEDLLRRRLLAPEAGSHPQQ [T8L] | 2.28
79 | AGQEGEDPLRRRLLAPEAGSHPQQ [T8P] | 3.37
80 | AGQEGEDDLRRRLLAPEAGSHPQQ [T8D] | 3.21
81 | AGQEGEDILRRRLLAPEAGSHPQQ [T8I] | 2.17
82 | AGQEGEDNLRRRLLAPEAGSHPQQ [T8N] | 1.67
83 | AGQEGEDALRRRLLAPEAGSHPQQ [T8A] | 2.41
84 | AGQEGEDMLRRRLLAPEAGSHPQQ [T8M] | 2.34
85 | AGQEGEDGLRRRLLAPEAGSHPQQ [T8G] | 2.93
86 | AGQEGEDHLRRRLLAPEAGSHPQQ [T8H] | 3.12
87 | AGQEGEDWLRRRLLAPEAGSHPQQ [T8W] | 1.5
88 | AGQEGEDRLRRRLLAPEAGSHPQQ [T8R] | 2.71
89 | AGQEGEDKLRRRLLAPEAGSHPQQ [T8K] | 3.24
90 | AGQEGEDQLRRRLLAPEAGSHPQQ [T8Q] | 2.81
91 | AGQEGEDFLRRRLLAPEAGSHPQQ [T8F] | 3.06
92 | AGQEGEDYLRRRLLAPEAGSHPQQ [T8Y] | 3.17
93 | AGQEGEDELRRRLLAPEAGSHPQQ [T8E] | 2.79
94 | AGQEGEDSLRRRLLAPEAGSHPQQ [T8S] | 2.03
